# Results taken from article PMC12460018.
# Assays:
# [1] = target: plasma-derived von Willebrand factor, highly purified in-house control preparation (human) (UniProt P04275); assay: ELISA + SPR; VWF:FVIIIB, measured by an ELISA combined with a chromogenic assay (ECA) and by Biacore; the table does not say which gave the percent
# [2] = target: recombinant von Willebrand factor, furin-matured (human) (UniProt P04275); assay: as above
substance,measurement,setting,value
"factor VIII, P00451 20-2351",VWF:FVIII binding capacity (%),[1],109%
same,VWF:FVIII binding capacity (%),[2],108%
